Holding throughout (experiment): Luminex beads; MAb 1/100; competitor rHLA-E
In assay [1] the target is HLA-Cw*1402 (human) (UniProt P10321).
In assay [2] the target is HLA-B*1511 (human) (UniProt P01889).
Assay [3] deals with HLA-Cw*1502 (human).
Assay [4] has as its target HLA-Cw*0602 (human) (UniProt P10321).
Assay [5] deals with HLA-B*4403 (human).
Assay [6] concerns the target HLA-Cw*0202 (human).
Assay [7] has as its target HLA-Cw*1701 (human).
For assay [8], the target named is HLA-B*1401 (human) (UniProt P01889).
For assay [9], the target named is HLA-B*2708 (human) (UniProt P01889).

Turning to “murine monoclonal antibody (MAb) MEM-E/02”, the MFI in [1] stood at 165 MFI; in assay [2] it was 192 MFI; in assay [3] it was 170 MFI; in assay [4] it was 88 MFI; in assay [5], 89 MFI; in assay [6] it was 220 MFI. Moreover, the MFI in assay [7] is 376 MFI; in [8], 230 MFI; in assay [9] it was 191 MFI.

These data come from US20120171195A1.
